Sequences and labels used below:
B1: JWT-C1 (VHH)
VHH: SGGLVQPGGSLRLSCAASGFTLANSAIGWFRQAPGKGREAVSCISTSAGTTNYASSVKGRFTTARDNAKNMAYLQMDNLKSGDTGVYECAAGWSIDCSGYILPAADVWGQGTQVTVSS
notes: also called αInt-13; JWZ-7 (vector name)
B2: JXF-D8 (VHH)
VHH: SGGALVQPGGSLRLSCAASGINLDYYAIGWFRQAPGKERKGVSCISHVDDDRIYYSDSVKGRFTISRDNAKNTVYLQMNSLEPEDTAVYYCATAGPSDYPCDLELWTYRRWGQGTQVTVSS
notes: also called αEspA-2; JXM-8 (vector name); not shown: thioredoxin, N-terminal, kept; E-tag, C-terminal, kept
B3: JYB-H4 (VHH)
VHH: SGGGLVQPGGSLRLSCAASGVTLEYYAIGWFRQVPGKEREGVSCISTSGAGTNYADSVKGRFTISKDNAKNTVYLQMNSLKPEDTAVYYCAARDFTEVPIGGCEWEYDYWGQGTQVTVSS
notes: also called αEspA-8; JYE-4 (vector name); not shown: thioredoxin, N-terminal, kept; E-tag, C-terminal, kept
B4: JXF-D7 (VHH)
VHH: SGGGLVQTGGSLRLSCSASGFALEYYAVGWFRQAPGKEREGVSCFSGSDGSKFHAQFVKGRFTISLDKEKNTVDLTMNNLKPEDTAVYYCAVAGPSDHQCDLGMTWYHRWGQGTQVTVSS
notes: also called αEspA-1; JXM-6 (vector name); not shown: thioredoxin, N-terminal, kept; E-tag, C-terminal, kept
B5: JYB-B1 (VHH)
VHH: TGGGLVQAGGSLRLSCAISGFSLGDYAIGWFRQAPEKEREGVAFSGSLGNTYYPDSMKGRFTISRDDAENAVYLEMKNLKPEDTAVYRCTSGGTFDAVVLGLSTYWGQGTQVTVSS
notes: also called αEspA-5; JYE-1 (vector name); not shown: thioredoxin, N-terminal, kept; E-tag, C-terminal, kept
B6: JYB-D1 (VHH)
VHH: TGGGLVQAGGSLRLSCAASGNTFSYTAMAWFRQAPGKQRELVARISSGRGPTKYADSVKGRFTISRDNTLNTVWLQMNDLKPEDTAVYFCNTLKYSGESSYIAGDSWGQGTQVTVSS
notes: also called αEspA-7; JYE-3 (vector name); not shown: thioredoxin, N-terminal, kept; E-tag, C-terminal, kept
B7: JYB-B8 (VHH)
VHH: TGGGLVQPGGSLRLSCAASGFTFSTYWMYWVRQAPGKGLEWVSTIDTGGSDTYYADSVKGRFTISRDNVKNTLYLQMDNLKPEDTALYYCGSSRDIVIVTTLRDFDYWGQGTQVTVFS
notes: also called αEspA-6; JYE-2 (vector name); not shown: thioredoxin, N-terminal, kept; E-tag, C-terminal, kept
B8: JXF-C4 (VHH)
VHH: SGGGLVQAGGSLRLSCVAYGRTANTFKEYAMGWFRHNPGEDHEFVGGISQNGDEAYFDDSVKGRFTPSRDNAKNTMYLQMNSLRPEDTAAYYCVAQRSSERLVGDMYSAMDSWGKGTLVTVST
notes: also called αEspA-4; JXM-15 (vector name); not shown: thioredoxin, N-terminal, kept; E-tag, C-terminal, kept
B9: JXF-H9 (VHH)
VHH: SGGGLAQTGGSLRLSCAASGFRLEYYAVGWFRQAPGKEREGVSCLSGSDGSTYNAEFAKGRFTISRDDAKNTVYLLMNSLKPEDTAVYYCAVAGPSDYQCDLGTRWYHRWGQGTVVTVSA
notes: also called αEspA-3; JXM-12 (vector name); not shown: thioredoxin, N-terminal, kept; E-tag, C-terminal, kept
B10: JYB-H6 (VHH)
VHH: TGGGLVQPGGSLRLSCVASGFILDAYTIGWFRQAPGKEREGVASINGSGFSTNYADSVKGRFTISRDNAKNTVWLQMNSLKPEDTAVYYCAAALGLLTPRLESTPFDDWGQGTQVTVSS
notes: also called αEspA-9; JYE-5 (vector name); not shown: thioredoxin, N-terminal, kept; E-tag, C-terminal, kept
B11: JWU-H4 (VHH)
VHH: TGGGSVQPGGSLRLSCAPSGFSLAYYGVGWFRQAPGKEREALACISRFGDDTYYADSAKGRFTVSRDNAKNTVYLEMNNLKPEDTGVYYCAAGWVVVTDESCGSGDAYNYWGRGTQVTVSS
notes: also called JXA-5 (vector name); not shown: thioredoxin, N-terminal, kept; E-tag, C-terminal, kept
B12: JXE-B1 (VHH)
VHH: TGGGLVQAGDSLRLSCAASSGRNFSNYATGWFRQAPGKEQEFVASISRSGRSTYYADSAKGRFTISRDNARNTVYLQMNSLKPEDTADYYCAAHETQWPNGLGWVRGFYDLWGQGTQVTVSS
notes: also called JXK-1 (vector name); not shown: thioredoxin, N-terminal, kept; E-tag, C-terminal, kept
B13: JWU-F3 (VHH)
VHH: SGGGLVQPGGSLRLTCVSSLSDFRLTNMAWYRQTPGSERDVVAGISPNGITSYHASVQDRFNISRDNARKTLFLQMNSLKPEDSGVYYCNIRWGSLLPWGQGTQVTVSP
notes: also called JXA-1 (vector name); not shown: thioredoxin, N-terminal, kept; E-tag, C-terminal, kept
B14: JVC-D10 (VHH)
VHH: TGGLVQTGDSLTLSCVVSGRGFCDWAMAWFRQAPGKEREKVSAIGWSGQDTYYSEPAKGRFTISRDNAKNTVWLRMTNLKSEDTAVYYCAAATRAYADYDYWGQGTQVTVSS
notes: also called αTir-5; JVI-2 (vector name); not shown: thioredoxin, N-terminal, kept; E-tag, C-terminal, kept
B15: JVA-C9 (VHH)
VHH: TGGGLVQAGGSLRLSCVDSGRTFGDNAMGWFRQAPGKEREYVAAIGYNGDSTYYLNSVKGRFTISRDNAKNTLYLQMNSLQLEDTGVYICAAKTRVTTKEYDFWGQGTQVTVSS
notes: also called αTir-9; JVF-3 (vector name); not shown: thioredoxin, N-terminal, kept; E-tag, C-terminal, kept
B16: JVB-C6 (VHH)
VHH: TGGGLVQPGGSLTLSCAASGFSITENAMGWARQVPGKGLEWVSLVYSGGNTYYAESIEGRFTISRDNAKNTVYLRMTSLKPEDTGVYYCAAREAVRVAGPPADVWGQGTQVTVSS
notes: also called αTir-1; JVG-1 (vector name); not shown: thioredoxin, N-terminal, kept; E-tag, C-terminal, kept
B17: JVA-C8 (VHH)
VHH: SGGGLVQAGGSLRLSCAASGFTFVDYGIAWVRQAPGKEREGVSCVSTSNRSQWYADSVKGRFTISSDNAKNTVYLQMDNLKPEDTAVYYCTRIDVGDNCRDGGGYRGQGTQVTISS
notes: also called αTir-8; JVF-2 (vector name); not shown: thioredoxin, N-terminal, kept; E-tag, C-terminal, kept
B18: JVB-G4 (VHH)
VHH: SGGGLVEAGGSLRLSCSASGRASGDGHLGWFGDGALAWFRQAPGKEREYVAAVGHSGTDTYYSDSVKGRFTISRDNAKSMGYLQMDNLRPDDTGIYYCALDLHLGQPGYDYWGQGTQVIVSS
notes: also called αTir-2; JVG-2 (vector name); not shown: thioredoxin, N-terminal, kept; E-tag, C-terminal, kept
B19: JVA-G1 (VHH)
VHH: SGGGLAQAGGSLKLSCVASGFTFADYAIGWFRQAPGKEREGVACISNSVGSTYYSDSVKGRVTISSDNVKKTVYLQMNSLKPEDTAFYYCALIDHGMNCRNSNGIHYWGKGTLVTVSS
notes: also called αTir-14; JVF-14 (vector name); not shown: thioredoxin, N-terminal, kept; E-tag, C-terminal, kept
B20: JVB-G8 (VHH)
VHH: TGGGLVQAGGSLRLSCVASGFTFNDYVLTWFRQAPGKGREGVASISPAFGNTFYADSVKGRFTITSDSAKKQVCLQMNNLKSEDTAVYFCAADPTVNFGPVLRAENYRHWGQGTQVTVSS
notes: also called αTir-3; JVG-3 (vector name); not shown: thioredoxin, N-terminal, kept; E-tag, C-terminal, kept
B21: JVA-E10 (VHH)
VHH: SGGGLVQAGGSLRLSCVASGRTFSDYAMGWFRQAPGKEREFVAAISWNGGSTYYADSVKGRFTISRDNAKNTMYLQMNSLKSEDTAVYYCISEGRGLRQVKTATDWEYWGQGTQVTVSP
notes: also called αTir-13; JVF-12 (vector name); not shown: thioredoxin, N-terminal, kept; E-tag, C-terminal, kept
B22: JVA-D4 (VHH)
VHH: TGGGLAQAGGSLRLSCATSGFTFADYAIGWFRQAPGKEREGVACISTSDNGQYSADSVKGRFTISKDNAKKTVYLQMNSLKPDDTAIYYCHLIDVGSNCRKGKDDGFWGQGTQVTVSS
notes: also called αTir-10; JVF-4 (vector name); not shown: thioredoxin, N-terminal, kept; E-tag, C-terminal, kept
B23: JVA-A1 (VHH)
VHH: SGGSVEAGDSLRLSCAASGRGFGDGALAWFRQAPGKEREYVAAVGHSGTDTYYADSVKGRFTISRDNAKNMGYLQMDSLRPDDTGVYYCALDLHLGQPGYDYWGQGTQVTVSS
notes: also called αTir-7; JVF-1 (vector name); not shown: thioredoxin, N-terminal, kept; E-tag, C-terminal, kept
B24: JVA-F6 (VHH)
VHH: SGGGLVQAGDSLRLSCVTSGRSFSEAAMGWFRQAPGKERELMTSIGWNGDRTYYADSVKGRFTISRDNAKNTVYLQMNGLTPNDTAVYYCAAAVRASKGYEYWGQGTQVTVSS
notes: also called αTir-11; JVF-7 (vector name); not shown: thioredoxin, N-terminal, kept; E-tag, C-terminal, kept
B25: JVC-E5 (VHH)
VHH: TGGGTVQAGSSLRLSCTASGFTFTDAAMGWFRQAPGKEREFVAAINWDSANKYYADSVKGRFTISRDNAKNTVYLEMTALKPEDTADYICAGDAKLGHVATSDVWRFWGQGTQVTVSS
notes: also called αTir-6; JVI-3 (vector name); not shown: thioredoxin, N-terminal, kept; E-tag, C-terminal, kept
B26: JVA-D11 (VHH)
VHH: SGGGLVQAGGSLRLSCAASGFTFNDYAKAWFRRAPGKEREGISAISSMGESTFYADSVKGRFTISSDSAKNTVYLQMNSLKPEDTAVYYCAADPTVKWGHVLREENYDYWGQGTQVTVVS
notes: also called αTir-12; JVF-8 (vector name); not shown: thioredoxin, N-terminal, kept; E-tag, C-terminal, kept
B27: JVC-C6 (VHH)
VHH: SGGGLVQAGGSLRLSCAASGVTFVDYATGWFRQAPGKEREGIACISNGASGSFVVNSVKGRFTTSTDNAKNTAYLQMNDLKPEDTATYYCALLGRTGGHCTDPNEYSYWGQGTQVTVSS
notes: also called αTir-4; JVI-1 (vector name); not shown: thioredoxin, N-terminal, kept; E-tag, C-terminal, kept

One assay has as its target T1, EHEC intimin (Escherichia coli O157:H7 EDL933 (EHEC), UniProt P43261).
T1 construct: also called recombinant intimin (EHEC)
The assay can be described thus: ELISA; dilution ELISA; purified antigen coated directly on Nunc Maxisorp wells, typically 1 μg/mL in PBS overnight at 4°C, blocked with 4% milk in PBS 0.1% Tween; thioredoxin/VHH/E-tag from 125 nM in 1:5 serial dilutions, 1 h 37°C; detected with HRP anti-E-tag; EC50 estimates (apparent affinity); Trace = EC50 >125 nM, poor but detectable. The conditions noted are these: both partners purified.
One may read the EC50 as the concentration giving half of the maximal effect. B1: the concentration giving a half-maximal response (EC50) is 0.5 nM.

For a further assay, the target named is C. rodentium EspA (Citrobacter rodentium ICC168 (parent of …, UniProt D2TKE3)). The assay is described as above. The conditions noted are these: both partners purified.
In the case of B2, the 50% effective concentration (EC50) was 0.7 nM.
On the same count and under the same terms, to B3 belongs 0.5 nM; to B4, 0.7 nM; to B5, 0.3 nM.
Turning to B6, the concentration for a half-maximal effect (EC50) was 3 nM.
Same read-out and setting: in the case of B7 it was 0.7 nM; in that of B8, 0.7 nM.
The same measure, in the same setting: in the case of B9 it was 0.7 nM.
The same measure, in the same setting: to B10 belongs 0.3 nM.

The next assay has as its target EPEC flagella (Escherichia coli O127:H6 E2348/69 (EPEC), UniProt B7USU2). The description is as above. The following applies: both partners purified.
Regarding B11, the 50% effective concentration (EC50) is 10 nM.
Still for that read-out and setting: to B12 belongs 0.1 nM; to B13, 0.2 nM.

A further assay addresses T2, EPEC Tir (enteropathogenic E. coli (EPEC), UniProt B7UM99).
T2 construct: also called GST-tagged EPEC Tir; recombinant his-tagged Tir
Description: ELISA; capture dilution ELISA; plate coated with 5 μg/mL of a non-competing VHH (no thioredoxin, no E-tag), antigen at 1 μg/mL captured for 1 h at 37°C (S1 Fig c-d: EPEC Tir, REPEC Tir); thioredoxin/VHH/E-tag from 125 nM in 1:5 serial dilutions; HRP anti-E-tag; EC50 estimates (apparent affinity); trace = EC50 >125 nM. The conditions noted are these: both partners purified.
With B14, the EC50 was 0.2 nM.
Same read-out and setting: to B15 belongs 5 nM; to B16, 50 nM; to B17, 0.2 nM.
As to B18, the concentration for a half-maximal effect (EC50) was 0.1 nM.
On the same count and under the same terms, in the case of B19 it was 0.2 nM; in that of B20, 0.2 nM; in that of B21, 0.2 nM.
Still for that read-out and setting: in the case of B22 it was 0.5 nM; in that of B23, 10 nM; in that of B24, 25 nM.
Same read-out and setting: in the case of B25 it was 0.2 nM; in that of B26, 0.2 nM.
For B27, the concentration for a half-maximal effect (EC50) is 0.2 nM.
